For assay [1], the system named is histone H3 Tyr99-phosphorylation (ACK1). Kind of assay: Histone H3 Tyr99-phosphorylation in HEK293 cells (pY99-H3 immunoprecipitation / H3 immunoblot). Type of assay: cell-based. Conditions: HEK293 cells treated with EGF ligand. As to the method:
FIGS. 3A-3E show Ack1 phosphoryltes H3 at Tyr99 residue. […] (FIG. 3B) HEK293 cells co-expressing Myc-tagged Ack1 (WT) or KD mutant ACK1 and FLAG-tagged H3 or Y99F mutant […] were serum-starved (24h) and lysates were immunoprecipitated with pY99-H3 antibodies followed by immunoblotting with FLAG antibody (top panel). (FIG. 3C) HEK293 cells were treated with EGF ligand for indicated time points. Equal amounts of lysates were immunoprecipitated pY99-H3 antibodies followed by with immunoblotting with H3 antibody (top panel). (FIG. 3D) HEK293 cells were treated with ACK1 inhibitor, AIM-100 (5 uM overnight) and/or EGF ligand 20 min. Equal amounts of lysates were immunoprecipitated pY99-H3 antibodies followed by with immunoblotting with H3 antibody (top panel). […] (FIG. 3E) HEK293 cells were treated with increasing concentrations of AIM-100 (1, 2, 3 and 5 μM). Equal amounts of lysates were immunoprecipitated pY99-H3 antibodies followed by with immunoblotting with H3 antibody (top panel).
The Tyrosine99 or Y99 site in H3 protein is evolutionarily conserved (FIG. 3A). To examine whether H3 is ACK1 kinase substrate, HEK293 cells were co-transfected with HA-tagged ACK1 and FLAG-tagged H3 or FLAG-tagged Y99F mutant H3 expressing constructs. ACK I specifically phosphorylated H3 protein, but not the Y99F mutant protein (FIG. 3B). […]
(In general: Immunoblotting shows a protein as a band on a membrane.)

For assay [2] the test system is unchanged. Kind of assay: Histone H3 Tyr99-phosphorylation in JAR cells (immunoblotting). Type of assay: cell-based, human. Conditions: EGF alone. As to the method:
(§1) FIGS. 5A-5D show ACK1 deposits pY99-H3 epigenetic marks in SLC6A4 promoter and intron 2. (FIG. 5A) Lysates prepared from JAR cells treated with EGF ligand were subjected to immunoblotting with indicated antibodies. (FIG. 5B) Lysates prepared from JAR cells treated with EGF or AIM-100 were subjected to immunoblotting with indicated antibodies. (FIG. 5C) Total RNA was prepared from JAR cells untreated or treated with EGF ligand followed by quantitative RT-PCR using SLC6A4 and actin primers. The ratio of SLC6A4 to actin is shown. (FIG. 5D) JAR cells were treated with EGF ligand and ChIP was performed using pY99-H3 antibodies followed by quantitative PCR using primers corresponding to intron 2 (VNTR).
(§2) JAR cells are human placenta-derived epithelial cells that express SLC6A4 or SERT. Applicant first assessed presence of ACK1 signaling in JAR cells by treating these cells with EGF ligand. […] ACK1 activation was also reflected in histone H3 Tyr99-phosphorylation (FIG. SA, 2nd panel).
To validate critical role of ACK1 in histone H3 Tyr99-phosphoryation, JAR cells were treated with EGF or EGF+AIM-100.

Another assay concerns SLC6A4 mRNA. In words: SLC6A4 mRNA expression (real time RT-PCR). Type of assay: cell-based, human. Conditions: JAR cells treated with EGF ligand. As for the experimental part:
The ratio of SLC6A4 to actin is shown. (FIG. 5D) JAR cells were treated with EGF ligand and ChIP was performed using pY99-H3 antibodies followed by quantitative PCR using primers corresponding to intron 2 (VNTR). […]
Applicant also identified for the first time that human and mouse serotonin transporter (SLC6A4 or SERT or 5-HTT) gene expression is regulated by ACK1. A novel mechanism was identified that is operational in SLC6A4 gene regulation. ACK1 deposits pY99-H3 epigenetic marks in promoter (5-HTTLPR) and intron 2 (VNTR) of SLC6A4 gene to regulate its transcription. […] Without being bound by theory, applicant believes that expression of Gabra6, Slc6a2, Slc6a4, Slc6a5 and Oxt genes as well as genes shown in Table 2 are also regulated by ACK1/pY99-H3 epigenetic activity/signaling.
(In general: Quantitative PCR measures a nucleic acid by following its amplification.)

Assay [3] relates to pY99-H3 marks at SLC6A4 promoter (5-HTTLPR) and intron 2 (VNTR). Kind of assay: ChIP with pY99-H3 antibodies and real time PCR at SLC6A4 gene in JAR cells. The assay is classed as cell-based, human. The conditions noted are these: EGF treatment. As to the method:
as §1
Applicant hypothesized that ACK1 deposits pY99-H3 epigenetic marks in promoter (5-HTTLPR) and intron 2 (VNTR) of SLC6A4 gene to regulate its transcription. To test this hypothesis, applicant performed chromatin immunoprecipitation (ChIP) with pY99-H3 antibodies followed by real time PCR for primers corresponding to promoter (5-HTTLPR) and intron 2 (VNTR) of SLC6A4 gene.

A further assay deals with ACK1. In words: ACK1 activation (phosphorylation) in JAR cells, immunoblotting. Type of assay: cell-based, human. The conditions noted are these: 10 min of treatment. As to the method: as §1, §2

B1: EGF: EGF ligand used to activate ACK1 (protein, UniProt P01133 23-1207, looked up)
Pro-epidermal growth factor: PQHWSCPEGTLAGNGNSTCVGPAPFLIFSHGNSIFRIDTEGTNYEQLVVDAGVSVIMDFHYNEKRIYWVDLERQLLQRVFLNGSRQERVCNIEKNVSGMAINWINEEVIWSNQQEGIITVTDMKGNNSHILLSALKYPANVAVDPVERFIFWSSEVAGSLYRADLDGVGVKALLETSEKITAVSLDVLDKRLFWIQYNREGSNSLICSCDYDGGSVHISKHPTQHNLFAMSLFGDRIFYSTWKMKTIWIANKHTGKDMVRINLHSSFVPLGELKVVHPLAQPKAEDDTWEPEQKLCKLRKGNCSSTVCGQDLQSHLCMCAEGYALSRDRKYCEDVNECAFWNHGCTLGCKNTPGSYYCTCPVGFVLLPDGKRCHQLVSCPRNVSECSHDCVLTSEGPLCFCPEGSVLERDGKTCSGCSSPDNGGCSQLCVPLSPVSWECDCFPGYDLQLDEKSCAASGPQPFLLFANSQDIRHMHFDGTDYGTLLSQQMGMVYALDHDPVENKIYFAHTALKWIERANMDGSQRERLIEEGVDVPEGLAVDWIGRRFYWTDRGKSLIGRSDLNGKRSKIITKENISQPRGIAVHPMAKRLFWTDTGINPRIESSSLQGLGRLVIASSDLIWPSGITIDFLTDKLYWCDAKQSVIEMANLDGSKRRRLTQNDVGHPFAVAVFEDYVWFSDWAMPSVMRVNKRTGKDRVRLQGSMLKPSSLVVVHPLAKPGADPCLYQNGGCEHICKKRLGTAWCSCREGFMKASDGKTCLALDGHQLLAGGEVDLKNQVTPLDILSKTRVSEDNITESQHMLVAEIMVSDQDDCAPVGCSMYARCISEGEDATCQCLKGFAGDGKLCSDIDECEMGVPVCPPASSKCINTEGGYVCRCSEGYQGDGIHCLDIDECQLGEHSCGENASCTNTEGGYTCMCAGRLSEPGLICPDSTPPPHLREDDHHYSVRNSDSECPLSHDGYCLHDGVCMYIEALDKYACNCVVGYIGERCQYRDLKWWELRHAGHGQQQKVIVVAVCVVVLVMLLLLSLWGAHYYRTQKLLSKNPKNPYEESSRDVRSRRPADTEDGMSSCPQPWFVVIKEHQDLKNGGQPVAGEDGQAADGSMQPTSWRQEPQLCGMGTEQGCWIPVSSDKGSCPQVMERSFHMPSYGTQTLEGGVEKPHSLLSANPLWQQRALDPPHQMELTQ
modifications: Pro-epidermal growth factor
With B1, the “endogenous H3 Tyr99-phosphorylation” value in assay [1] was “significant upregulation in endogenous H3 Tyr99-phosphorylation”. The “histone H3 Tyr99-phosphorylation” value in assay [2] is “significant upregulation of histone H3 Tyr99-phosphoryation”. Moreover, the “SLC6A4 mRNA levels” value in the assay on SLC6A4 mRNA is listed as “significant increase in SLC64A mRNA levels”. Further, the “deposition of pY99-H3 marks at promoter (5-HTTLPR) and intron 2 (VNTR) of SLC6A4 gene” value in assay [3] is “significant increase in deposition of pY99-H3 marks”. In addition, in the assay on ACK1, the “ACK1 activation (phosphorylation)” value is listed as “robust ACK1 activation”.
